Measured values reported in the supplement of paper PMC9112550, “Optimization of the antimicrobial peptide Bac7 by deep mutational scanning” (BMC Biology, 2022).

Tested on: Escherichia coli TOP10
Assay: shrunken log2 fold change of peptide-encoding DNA abundance (4.5 h post-induction vs induction); higher = less antimicrobial activity (less host growth inhibition)
Settings: time post-induction: 4.5 h; library: site-saturation at positions 5, 18, 19, 20
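Note: peptides expressed intracellularly from a pBAD plasmid library in pooled LB shake-flask culture, induced with 0.3% L-arabinose, DNA abundance read by NGS, three biological replicates, DESeq2 with apeglm shrinkage.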

Sequence	shrunken log2 fold change
RRIRPRPPRLPRPRPRPYMVPRP	-1.09
RRIRRRPPRLPRPRPRPPMIPRP	0.0196
RRIRRRPPRLPRPRPRPPNRPRP	0.4
RRIRARPPRLPRPRPRPALCPRP	0.637
RRIRGRPPRLPRPRPRPQAAPRP	1.22
RRIRQRPPRLPRPRPRPWPYPRP	0.0155
RRIRSRPPRLPRPRPRPCSWPRP	-0.0623
RRIRCRPPRLPRPRPRPRNMPRP	0.0316
RRIRVRPPRLPRPRPRPNKHPRP	-0.189
RRIRYRPPRLPRPRPRPQPLPRP	-0.00898
RRIRHRPPRLPRPRPRPDDYPRP	-0.00759
RRIRNRPPRLPRPRPRPYDHPRP	-0.219
RRIRLRPPRLPRPRPRPFSMPRP	-0.0455
RRIRNRPPRLPRPRPRPFMIPRP	-0.294
RRIRIRPPRLPRPRPRPCYHPRP	-0.265
RRIRERPPRLPRPRPRPRATPRP	0.278
RRIRPRPPRLPRPRPRPPYHPRP	-0.226
RRIRNRPPRLPRPRPRPVVTPRP	-0.114
RRIRTRPPRLPRPRPRPVTNPRP	-0.0277
RRIRHRPPRLPRPRPRPDMFPRP	-0.0749
RRIRNRPPRLPRPRPRPWHQPRP	-0.094
RRIRMRPPRLPRPRPRPCCDPRP	0.393
RRIRTRPPRLPRPRPRPDWDPRP	0.223
RRIRCRPPRLPRPRPRPAQMPRP	0.224
RRIRNRPPRLPRPRPRPHNMPRP	-1.06

Sequence	shrunken log2 fold change
RRIRNRPPRLPRPRPRPFIIPRP	-0.41
RRIRLRPPRLPRPRPRPVIAPRP	-0.176
RRIRYRPPRLPRPRPRPSHFPRP	-0.411
RRIRQRPPRLPRPRPRPISAPRP	-0.0212
RRIRMRPPRLPRPRPRPRHWPRP	0.477
RRIRPRPPRLPRPRPRPFRYPRP	-0.0865
RRIRCRPPRLPRPRPRPPNDPRP	0.383
RRIRSRPPRLPRPRPRPRYMPRP	-0.664
RRIRHRPPRLPRPRPRPEKFPRP	-0.0202
RRIRTRPPRLPRPRPRPWVAPRP	-0.0456
RRIRLRPPRLPRPRPRPCDMPRP	-0.0352
RRIRWRPPRLPRPRPRPFPRPRP	0.111
RRIRNRPPRLPRPRPRPNRCPRP	-0.0238
RRIRKRPPRLPRPRPRPCERPRP	0.019
RRIRFRPPRLPRPRPRPQFKPRP	-0.217
RRIRYRPPRLPRPRPRPPADPRP	0.115
RRIRPRPPRLPRPRPRPPHDPRP	0.572
RRIRLRPPRLPRPRPRPAANPRP	0.273
RRIRARPPRLPRPRPRPQLYPRP	0.0997
RRIRMRPPRLPRPRPRPIHWPRP	-0.257
RRIRVRPPRLPRPRPRPPMFPRP	-0.161
RRIRKRPPRLPRPRPRPCFMPRP	-0.0787
RRIRCRPPRLPRPRPRPGRSPRP	0.0654
RRIRRRPPRLPRPRPRPECDPRP	0.889
RRIRHRPPRLPRPRPRPAYFPRP	-0.833

Sequence	shrunken log2 fold change
RRIRLRPPRLPRPRPRPECAPRP	0.65
RRIRWRPPRLPRPRPRPDSMPRP	-0.0126
RRIRTRPPRLPRPRPRPPQNPRP	0.329
RRIRTRPPRLPRPRPRPYLEPRP	-0.573
RRIRDRPPRLPRPRPRPHHPPRP	-0.408
RRIRPRPPRLPRPRPRPYRGPRP	0.153
RRIRPRPPRLPRPRPRPVALPRP	0.0375
RRIRSRPPRLPRPRPRPWEPPRP	-0.029
RRIRVRPPRLPRPRPRPAGQPRP	0.375
RRIRYRPPRLPRPRPRPKNYPRP	-1.38
RRIRQRPPRLPRPRPRPPAKPRP	0.358
RRIRPRPPRLPRPRPRPTEFPRP	-0.268
RRIRYRPPRLPRPRPRPYMIPRP	-0.0298
RRIRYRPPRLPRPRPRPTKLPRP	-0.683
RRIRRRPPRLPRPRPRPKYWPRP	0.00676
RRIRFRPPRLPRPRPRPGTDPRP	-0.11
RRIRMRPPRLPRPRPRPRFKPRP	0.498
RRIRFRPPRLPRPRPRPNKFPRP	-0.783
RRIRCRPPRLPRPRPRPTKSPRP	-0.0425
RRIRLRPPRLPRPRPRPPDMPRP	-0.111
RRIRSRPPRLPRPRPRPENDPRP	-0.0386
RRIRWRPPRLPRPRPRPARHPRP	0.31
RRIRWRPPRLPRPRPRPLSDPRP	0.254
RRIRFRPPRLPRPRPRPHVNPRP	-0.297
RRIRERPPRLPRPRPRPEHCPRP	-0.014

Sequence	shrunken log2 fold change
RRIRERPPRLPRPRPRPFQWPRP	0.0371
RRIRARPPRLPRPRPRPLKCPRP	0.381
RRIRTRPPRLPRPRPRPEPCPRP	0.0427
RRIRLRPPRLPRPRPRPSCCPRP	-0.212
RRIRPRPPRLPRPRPRPNAGPRP	0.0847
RRIRYRPPRLPRPRPRPYTSPRP	-0.533
RRIRCRPPRLPRPRPRPRFMPRP	-0.244
RRIRKRPPRLPRPRPRPVTYPRP	-0.0821
RRIRNRPPRLPRPRPRPRQEPRP	0.00772
RRIRCRPPRLPRPRPRPSNGPRP	-0.113
RRIRTRPPRLPRPRPRPPALPRP	0.311
RRIRKRPPRLPRPRPRPLMNPRP	0.158
RRIRARPPRLPRPRPRPGNTPRP	-0.0858
RRIRKRPPRLPRPRPRPDWWPRP	-0.0103
RRIRIRPPRLPRPRPRPKAQPRP	-0.0442
RRIRGRPPRLPRPRPRPVLAPRP	0.773
RRIRHRPPRLPRPRPRPYSGPRP	-0.151
RRIRLRPPRLPRPRPRPCKHPRP	-0.0106
RRIRDRPPRLPRPRPRPVYGPRP	-0.322
RRIRSRPPRLPRPRPRPLIAPRP	0.0475
RRIRYRPPRLPRPRPRPAWKPRP	0.0184
RRIRKRPPRLPRPRPRPCNLPRP	0.0104
RRIRIRPPRLPRPRPRPVFKPRP	-0.25
RRIRDRPPRLPRPRPRPWCLPRP	-0.129
RRIRWRPPRLPRPRPRPDCTPRP	0.372

Sequence	shrunken log2 fold change
RRIRGRPPRLPRPRPRPRFGPRP	0.662
RRIRLRPPRLPRPRPRPLRMPRP	0.222
RRIRPRPPRLPRPRPRPNYIPRP	-0.739
RRIRTRPPRLPRPRPRPMQWPRP	0.0688
RRIRVRPPRLPRPRPRPWPGPRP	0.101
RRIRTRPPRLPRPRPRPTRRPRP	0.71
RRIRSRPPRLPRPRPRPHNTPRP	-0.337
RRIRERPPRLPRPRPRPIDHPRP	-0.379
RRIRCRPPRLPRPRPRPSVMPRP	0.445
RRIRARPPRLPRPRPRPARCPRP	0.331
RRIRNRPPRLPRPRPRPFKVPRP	0.0253
RRIRDRPPRLPRPRPRPMSQPRP	-0.236
RRIRNRPPRLPRPRPRPQMGPRP	0.102
RRIRIRPPRLPRPRPRPCQAPRP	-0.025
RRIRMRPPRLPRPRPRPKEAPRP	-0.00711
RRIRHRPPRLPRPRPRPGGTPRP	0.0131
RRIRKRPPRLPRPRPRPTWAPRP	0.0687
RRIRTRPPRLPRPRPRPDSEPRP	-0.182
RRIRVRPPRLPRPRPRPNDDPRP	-0.299
RRIRLRPPRLPRPRPRPMCLPRP	-0.166
RRIRMRPPRLPRPRPRPMNIPRP	-0.198
RRIRLRPPRLPRPRPRPTSHPRP	-0.0914
RRIRCRPPRLPRPRPRPQANPRP	0.0603
RRIRHRPPRLPRPRPRPRCWPRP	0.145
RRIRPRPPRLPRPRPRPPWWPRP	0.842

Sequence	shrunken log2 fold change
RRIRDRPPRLPRPRPRPRGTPRP	-0.217
RRIRMRPPRLPRPRPRPYTPPRP	-0.847
RRIRRRPPRLPRPRPRPTKWPRP	0.0371
RRIRLRPPRLPRPRPRPGDTPRP	-0.238
RRIRTRPPRLPRPRPRPRFAPRP	0.37
RRIRSRPPRLPRPRPRPYEMPRP	-0.234
RRIRNRPPRLPRPRPRPTRRPRP	0.805
RRIRNRPPRLPRPRPRPCINPRP	-0.548
RRIRKRPPRLPRPRPRPERRPRP	0.337
RRIRYRPPRLPRPRPRPFKYPRP	-0.689
RRIRVRPPRLPRPRPRPYHSPRP	-1.02
RRIRVRPPRLPRPRPRPKAAPRP	0.1
RRIRPRPPRLPRPRPRPIRMPRP	-0.039
RRIRQRPPRLPRPRPRPPVTPRP	0.199
RRIRGRPPRLPRPRPRPNAKPRP	1.22
RRIRRRPPRLPRPRPRPDFPPRP	0.897
RRIRQRPPRLPRPRPRPPCFPRP	0.222
RRIRQRPPRLPRPRPRPWPKPRP	0.097
RRIRMRPPRLPRPRPRPNTWPRP	0.454
RRIRERPPRLPRPRPRPCGYPRP	-0.239
RRIRRRPPRLPRPRPRPFYEPRP	-0.0293
RRIRPRPPRLPRPRPRPFHTPRP	-0.569
RRIRLRPPRLPRPRPRPDPTPRP	0.0311
RRIRNRPPRLPRPRPRPSSHPRP	-0.0939
RRIRPRPPRLPRPRPRPSGMPRP	-0.183
